Experimental data taken from PMC3245798.

Biological target: soluble H ectodomain (sH, amino acids 60-617) of measles virus (measles virus) (UniProt P08362)
Assay: SPR

Sequence of UniProt P08362 (P08362 60-617 limits assumed): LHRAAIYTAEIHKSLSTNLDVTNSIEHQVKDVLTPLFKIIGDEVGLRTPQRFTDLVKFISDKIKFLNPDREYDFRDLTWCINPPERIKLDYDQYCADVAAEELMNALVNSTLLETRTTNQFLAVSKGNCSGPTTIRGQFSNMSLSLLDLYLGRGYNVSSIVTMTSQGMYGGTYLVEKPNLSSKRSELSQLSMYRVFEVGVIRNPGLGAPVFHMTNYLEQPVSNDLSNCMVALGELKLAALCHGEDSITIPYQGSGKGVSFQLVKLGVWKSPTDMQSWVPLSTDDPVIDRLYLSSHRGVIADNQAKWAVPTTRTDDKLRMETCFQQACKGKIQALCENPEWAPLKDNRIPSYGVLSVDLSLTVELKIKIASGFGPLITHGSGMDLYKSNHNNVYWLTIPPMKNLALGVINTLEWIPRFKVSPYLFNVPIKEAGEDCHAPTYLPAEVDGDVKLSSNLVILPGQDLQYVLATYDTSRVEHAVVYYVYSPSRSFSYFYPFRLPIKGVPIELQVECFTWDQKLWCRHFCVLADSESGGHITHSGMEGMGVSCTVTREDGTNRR

soluble nectin-4 ectodomain fused to human IgG1 Fc domain (N4VCC-Fc) (from UniProt Q96NY8 32-349) (Fc fusion)
kon relative to that of SLAM and H: 5 fold
